Legend:
[1] = target: SSB_(HK620), wild-type HkaK protein from phage HK620 (phage HK620) (UniProt Q9AZ30)
[2] = target: T1, Sak4 (HkaL) of phage HK620 (Enterobacteria phage HK620, UniProt Q9AZ29); assay: gel shift of Cy5-labelled 81-mer ssDNA and single-strand annealing assay, with or without ATP; conditions: 1 mM ATP, 5 mM MgCl2, about 150-169 mM NaCl, pH 7.5, 30 °C; ATP needed for ssDNA binding and annealing; functional evidence, nucleotide binding not measured directly
T1 construct: untagged full-length Sak4 from plasmid pSMG288, expressed in E. coli ER2566; monomer in solution
T1 sequence (Q9AZ29 1-226): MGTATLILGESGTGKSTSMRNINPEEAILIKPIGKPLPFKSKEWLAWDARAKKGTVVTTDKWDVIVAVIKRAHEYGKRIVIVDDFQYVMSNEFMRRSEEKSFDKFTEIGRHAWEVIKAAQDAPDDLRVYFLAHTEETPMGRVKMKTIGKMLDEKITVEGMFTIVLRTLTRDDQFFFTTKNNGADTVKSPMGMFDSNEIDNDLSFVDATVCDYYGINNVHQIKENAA

[3] = target: T2, Sak4 (HkaL);SSB HK620 (HkaK) (Enterobacteria phage …, UniProt Q9AZ29;Q9AZ30 1-226;1-195, |); assay: EMSA; Sak4 titrated on GO47 precoated with 5.1 uM SSB HK620; 1 mM ATP; value is Sak4 concentration; EMSA: 13 mM Tris-HCl pH 7.5, 5 mM MgCl2, 169 mM NaCl, 0.1 mg/mL BSA, 1 mM DTT, +/- 1 mM ATP, 10 nM DNA, 15 min at 30 C; 5% native PAGE in 1X TAE; conditions: protein: recombinant;recombinant; tags: none stated;untagged; copies: 1;4; label: 5'-Cy5; single strand
T2 sequence 1: T1 sequence (Q9AZ29 1-226)
T2 sequence 2: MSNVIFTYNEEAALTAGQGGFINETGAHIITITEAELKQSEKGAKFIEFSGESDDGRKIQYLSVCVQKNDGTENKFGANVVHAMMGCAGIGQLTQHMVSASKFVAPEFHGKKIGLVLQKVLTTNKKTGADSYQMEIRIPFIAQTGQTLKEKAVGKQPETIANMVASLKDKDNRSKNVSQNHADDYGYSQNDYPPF

[4] = target: T3, SSB HK620 (HkaK) (Enterobacteria phage HK620, UniProt Q9AZ30 1-195); assay: EMSA; 5 mM Mg2+, 1 mM ATP; EMSA: 13 mM Tris-HCl pH 7.5, 5 mM MgCl2, 169 mM NaCl, 0.1 mg/mL BSA, 1 mM DTT, +/- 1 mM ATP, 10 nM DNA, 15 min at 30 C; 5% native PAGE in 1X TAE; conditions: protein: recombinant; tags: untagged; chain copies: 4; label: 5'-Cy5; single strand
T3 sequence: T2 sequence 2

[5] = target: SSB Ecoli (Escherichia coli, UniProt P0AGE0 2-178); assay: as above; conditions: protein: commercial; chain copies: 4; label: 5'-Cy5; single strand
SSB Ecoli, sequence (P0AGE0 2-178): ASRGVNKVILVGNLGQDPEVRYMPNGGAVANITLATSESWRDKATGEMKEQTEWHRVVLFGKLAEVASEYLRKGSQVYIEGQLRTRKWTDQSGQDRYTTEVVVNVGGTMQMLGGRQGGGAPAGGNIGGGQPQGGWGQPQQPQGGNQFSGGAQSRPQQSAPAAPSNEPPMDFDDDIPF

[6] = target: T4, Sak4 (HkaL) (Enterobacteria phage HK620, UniProt Q9AZ29 1-226); assay: EMSA; 1 mM ATP, 5 mM Mg2+; EMSA: 13 mM Tris-HCl pH 7.5, 5 mM MgCl2, 169 mM NaCl, 0.1 mg/mL BSA, 1 mM DTT, +/- 1 mM ATP, 10 nM DNA, 15 min at 30 C; 5% native PAGE in 1X TAE; conditions: protein: recombinant; tags: none stated; label: 5'-Cy5; single strand
T4 sequence: T1 sequence (Q9AZ29 1-226)

[7] = target: T4, Sak4 (HkaL); assay: EMSA; 3.7 uM Sak4, 1 mM ATP; EMSA: 13 mM Tris-HCl pH 7.5, 5 mM MgCl2, 169 mM NaCl, 0.1 mg/mL BSA, 1 mM DTT, +/- 1 mM ATP, 10 nM DNA, 15 min at 30 C; 5% native PAGE in 1X TAE; conditions: protein: recombinant; tags: none stated; label: 5'-Cy5 on GO47; blunt
[8] = target: the molecule itself; assay: SEC; Superdex 200 10/300 GL; proteins alone or together in 1 mL of 50 mM Tris-HCl pH 8, 1 mM DTT, 5% glycerol, 150 mM NaCl, 20 min at 30°C before injection; fractions analysed by SDS-PAGE; no ssDNA, no ATP

In the case of “Sak4 protein of phage HK620 (natural protein)”, the single-strand annealing of GO47 and GO34 (10 nM each) by 0.5 µM Sak4 with SSB (HK620) at concentrations above 640 nM, 1 mM ATP (spontaneous annealing 11.8%) [1] is reported as > 65%.

In the case of Nc1ncnc2c1ncn2[C@@H]1O[C@H](COP(=O)(O)OP(=O)(O)OP(=O)(O)O)[C@@H](O)[C@H]1O [ATP], the “gel shift of Cy5-labelled 81-mer ssDNA and single-strand annealing assay, with o” value [2] is reported as “Sak4 shifted the ssDNA only if ATP was added in the reaction buffer”.

B1: GO47 (ssDNA)
DNA: ACCTGAATCGCCAGCGGCATCAGCACCTTGTCGCCTTACGTATACTATTTGCCCATGGTGAAAACGGGGGCGAAGAAGTTG
With B1 the “apparent K (half saturation)” value [3] was < 500 nM, the “apparent K (half saturation)” value [4] was 226 nM and the “apparent K (half saturation)” value [5] was ~40 nM. The “apparent K (half saturation)” value [6] was ~1850 nM.

B2: GO47/GO34 duplex (dsDNA)
DNA 1: B1 DNA
DNA 2: CAACTTCTTCGCCCCCGTTTTCACCATGGGCAAATAGTATACGTAAGGCGACAAGGTGCTGATGCCGCTGGCGATTCAGGT
B2: no binding [7].

B3: SSB_(HK620), wild-type HkaK protein from phage HK620 (natural protein, UniProt Q9AZ30 1-195, looked up)
chain: T2 sequence 2
notes: HkaK (first annotated Abc1) of phage HK620, a distant SSB homolog (Pfam DUF669); produced untagged; monomer 21.3 kDa; Untagged; also called Abc1_(HK620); HkaK/Abc1_(HK620); source: E. coli ER2566 with pSMG279, purified (PEI, ammonium sulfate, HiTrap Heparin)
B3 was tested, and the “stoichiometry N” value [8] was 4.

From article PMC5928155, “Sak4 of Phage HK620 Is a RecA Remote Homolog With Single-Strand Annealing Activity Stimulated by Its Cognate SSB Protein” (Frontiers in Microbiology, 2018)
